Laboratory results published in patent publication US20110243962A1 (GENEURO, published 2011).

Target: T1, MSRV ENV surface domain fragment (ENV-SU), recombinant from E. coli (MSRV (Multiple Sclerosis associated …))
T1 chain: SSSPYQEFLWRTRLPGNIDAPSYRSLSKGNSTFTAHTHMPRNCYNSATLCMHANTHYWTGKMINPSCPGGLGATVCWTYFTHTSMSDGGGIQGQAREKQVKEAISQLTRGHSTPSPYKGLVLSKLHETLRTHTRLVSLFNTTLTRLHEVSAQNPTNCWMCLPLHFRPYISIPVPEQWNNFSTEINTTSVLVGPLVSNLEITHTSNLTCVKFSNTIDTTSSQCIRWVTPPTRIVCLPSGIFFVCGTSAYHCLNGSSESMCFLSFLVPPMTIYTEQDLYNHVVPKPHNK
Assay: cell-based or functional assay

B1: Chimeric GNb AC1 IgG4 (human IgG4 constant regions with murine VH and VL) (antibody, V domains shown)
VH: QVQLQQSGAELVRPGASVTLSCKASGYTFTDYEMHWVKQTPVHGLEWIGAVAPETGGTAYNQKFKGKATLTAAKSSSTAYMELRSLTSEDSAVYYCTSTVVPFAYWGQGTLVTVSA
VL: QIVLTQSPAIMSASPGEKVTISCSASSSVSYMYWYQQKPGSSPKAWIYRTSNLASGVPGRFSGSGSGTSYSLTISSMEAEDAATYYCQQYQSLPLTFGSGTKLEIKR
notes: also called GNbAC1 chimeric IgG4; GNbAC1-IgC4
For B1, the “IFN-g at 72 h in PBMC culture with ENV-SU 0.5 ug/ml, MAb ratio 10/1 (no antibody: 336)” value was 384.
